Measured values from PMC11109247 (Nature Communications, 2024).
Where “and” joins values, the source holds several entries; their conditions need not be identical. Equal entries are not always repeated.

Columns and labels:
[1] = target: the molecule itself; assay: SDS-PAGE without reduction and boiling
[2] = target: T1, soluble NiVMY G ectodomain used for structural determination (residues 72-602, His tag) (Nipah virus Malaysia (NiVMY), UniProt Q9IH62); assay: cryo-EM structure; conditions: both partners purified
T1 construct: source: Expi293F, transient transfection, purified

[3] = target: NiVBD G ectodomain (Nipah virus, Bangladesh (GenBank …, UniProt Q4VCP5, strain)); assay: cell-based or functional assay
[4] = target: NiVMY G ectodomain (Nipah virus, Malaysia (GenBank …, UniProt E2II03)); assay: cell-based or functional assay
[5] = target: HeV G ectodomain (Hendra virus (isolate …, UniProt O89343)); assay: cell-based or functional assay
HeV G ectodomain (Hendra virus, sequence (O89343 71-604): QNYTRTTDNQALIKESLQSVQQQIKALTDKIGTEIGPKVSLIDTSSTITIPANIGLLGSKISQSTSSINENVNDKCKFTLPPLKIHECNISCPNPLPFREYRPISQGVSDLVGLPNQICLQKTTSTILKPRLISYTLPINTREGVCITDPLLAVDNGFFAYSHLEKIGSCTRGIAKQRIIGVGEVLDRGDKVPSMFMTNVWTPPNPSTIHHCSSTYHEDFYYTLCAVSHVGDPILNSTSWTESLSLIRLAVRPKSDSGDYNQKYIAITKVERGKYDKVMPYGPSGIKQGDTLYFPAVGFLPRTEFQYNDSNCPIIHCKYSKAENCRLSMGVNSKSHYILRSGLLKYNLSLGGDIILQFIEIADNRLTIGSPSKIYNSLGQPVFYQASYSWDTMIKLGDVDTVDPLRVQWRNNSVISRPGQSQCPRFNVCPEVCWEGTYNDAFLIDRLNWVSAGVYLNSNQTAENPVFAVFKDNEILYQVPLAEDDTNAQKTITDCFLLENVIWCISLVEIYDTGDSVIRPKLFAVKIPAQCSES

B1: NiVMY G ectodomain (residues 72-602), His-tagged, used for structural determination (domain or fragment)
chain: NYTRSTDNQAVIKDALQGIQQQIKGLADKIGTEIGPKVSLIDTSSTITIPANIGLLGSKISQSTASINENVNEKCKFTLPPLKIHECNISCPNPLPFREYRPQTEGVSNLVGLPNNICLQKTSNQILKPKLISYTLPVVGQSGTCITDPLLAMDEGYFAYSHLERIGSCSRGVSKQRIIGVGEVLDRGDEVPSLFMTNVWTPPNPNTVYHCSAVYNNEFYYVLCAVSTVGDPILNSTYWSGSLMMTRLAVKPKSNGGGYNQHQLALRSIEKGRYDKVMPYGPSGIKQGDTLYFPAVGFLVRTEFKYNDSNCPITKCQYSKPENCRLSMGIRPNSHYILRSGLLKYNLSDGENPKVVFIEISDQRLSIGSPSKIYDSLGQPVFYQASFSWDTMIKFGDVLTVNPLVVNWRNNTVISRPGQSQCPRFNTCPEICWEGVYNDAFLIDRINWISAGVFLDSNQTAENPVFTVFKDNEILYRAQLASEDTNAQKTITNCFLLKNKIWCISLVEIYDTGDNVIRPKLFAVKIPEQCT
[1]
  stoichiometry N: 4 and 2

B2: 1E5 Fab (Fab, V domains shown)
VH: QVQLQESGPGVVKPSETLSLTCAVSGGSISDTYRWSWIRQPPGKGLEWIGYIYGSATSTYYNPSLSSRVTISKDMSKNQFSLNLNSVTAADTAVYYCARDYQYYYSGSYPTPHNWFDVWGPGVLVTVSS
VL: DIQMTQSPSSLSASVGDRVTITCRASQGIIDYLSWYQQKPGKAPKLLISTASNLESGVPSRFSGSGSGTEFTLTISSLQPEDFATYSCLQGYTTPYTFGQGTKVEIK
notes: source: Expi293F, transient transfection, purified
[2]
  binding result: binds

B3: 1E5 (antibody, V domains shown)
VH: B2 VH
VL: B2 VL
[3]
  IC50 of neutralisation of authentic NiV-BD (plaque reduction; Fig. 2o): 0.0125 µg/mL
[4]
  IC50 of neutralisation of authentic NiV-MY (plaque reduction; Fig. 2o): 0.012 µg/mL
[5]
  IC50 of neutralisation of authentic HeV (plaque reduction; Fig. 2o): 0.147 µg/mL
